Experimental data: patent US20250051759A1, “METHODS AND MOLECULES FOR RNA INTERFERENCE (RNAi)” (BOEHRINGER INGELHEIM INTERNATIONAL GMBH, priority 2021, published 2025)
Numbering of substitutions follows the chain as printed. Entries after “also recorded” stand apart in the source; their conditions may differ.

Legend:
RN2 (AML) cells = experiment: Competitive proliferation assay; assay type: cell-based, mouse; details: monitored for 8 days, no endogenous target gene
Protocol: (§1) The 3 best-performing ARTi-shRNAmirs were analyzed for their effects on proliferation of diverse mouse cell lines originating from different tissues. This experimental step monitors potential off-target effects. Should an off-target, relevant to the proliferative capacity be knocked down, a decrease in cellular fitness would be expected. NIH 3T3 (embryonic fibroblasts), EPP2 (PDAC) and RN2 (AML) cells were transduced with ARTi-shRNAs or validated control shRNAs. Subsequently, the percentage of shRNA expressing cells was monitored via flow cytometry in regular intervals for 8 days in competitive co-culture assays. For competitive proliferation assays, NIH 3T3, EPP2 and RN2 cells were retrovirally transduced with shRNAmir expression plasmids and initial infection levels were determined by flow cytometry based on mCherry expression 4 days post transduction (Day 0). The percentage of infected cells was then further monitored in regular intervals to determine the effects of shRNA expression in the absence of an endogenous target gene for the ARTi-shRNAmirs.

[1] = test system: NIH 3T3, EPP2 and RN2 cells; experiment: Competitive proliferation assays, result stated for all cell lines together; assay type: cell-based, mouse; details: all tested cell lines, competitive co-culture
Protocol: as §1

[2] = test system: NIH 3T3, EPP2 and MR125 cells; experiment: Transcriptional profiling (QuantSeq) for off-target effects; assay type: cell-based, mouse; details: cells expressing ARTi-shRNAs vs empty vector control, no target gene expression
Protocol: To directly quantify off-target effects of the top 3 ARTi-shRNAs, transcriptome profiling in NIH 3T3, EPP2 and MR125 cells expressing ARTi-shRNAs or empty vector control was performed. For the unbiased identification of ARTi shRNA off-targets NIH-3T3, EPP2 and MR125 cells were retrovirally transduced with shRNAmir expression plasmids and selected for shRNA expression using G418 Sulfate (0.5 mg/mL for EPP2 and NIH 3T3 and 1 mg/mL for MR125, respectively; Gibco). 1.5×106 (NIH 3T3 and EPP2) or 2×106 (MR125) cells were pelleted, washed with PBS, lysed, treated with DNAse I and whole RNA was extracted using magnetic beads (in-house) and a KingFisher Duo Prime Purification System (ThermoFisher). Next generation sequencing libraries were prepared using QuantSeq 3′ mRNA-Seq Library Prep Kit (Lexogen) according to manufacturer's instructions and sequenced on a HiSeq2500 platform (Illumina).
RefSeq genes and 3′-UTR annotations were prepared from the UCSC table browser (https://genome.ucsc.edu/cgi-bin/hgTables, May 2016). […] Reads were aligned to the GRCm38 primary assembly using Slamdunk v0.2.410 in QuantSeq mode (slamdunk map-5 12-n 100-q) and alignments were filtered to recover multimappers with the acquired 3′-UTR set (slamdunk filter-b). Reads were quantified against said 3′-UTR annotation using featureCounts v1.5.0-p211 using stranded counting and counting multimapping reads (−M ˜s 1). […]

EGFR^del19::dsRed::ARTi = experiment: Western blot of doxycycline induced knockdown in PC-9 cells; assay type: cell-based; details: endogenous EGFR knocked out, doxycycline induced expression
Protocol: The EGFR^del19::Linker::dsRed::ARTi construct was transduced into EGFR^del19dependent PC-9 cells. The endogenous EGFR gene was then knocked out using CRISPR/Cas9, making the PC-9 cells dependent on EGFR^del19::dsRed::ARTi. PC-9 cell pellets for different genetic backgrounds and treatments were lysed in triton lysis buffer, sonicated, and stored at −80° C. until for protein detection, the pellets were thawed on ice, followed by 15 minutes centrifugation at 13,000 rpm at 4° C. Then, cell lysates were loaded onto a 12% pre-casted SDS-polyacrylamide gel electrophoresis and proteins were transferred onto a nitrocellulose membrane and PDVF-membrane, respectively. Both membranes were probed with the respective primary antibodies overnight. The next day, the secondary antibodies conjugated with fluorescent dye were added and the proteins were detected by the Odyssey detection system.

B1: ARTi-shRNA 6634: ARTi-shRNAmir, antisense RNA UUCGAUUAAAACAUCAUCCGGA (SEQ ID NO: 10), 97 mer SEQ ID NO: 22 (nucleic acid)
chain: UGCUGUUGACAGUGAGCGCCCGGAUGAUGUUUUAAUCGAAUAGUGAAGCCACAGAUGUAUUCGAUUAAAACAUCAUCCGGAUGCCUACUGCCUCGGA
growth compared to non-transduced cells in competitive co-culture (RN2 (AML) cells): growth disadvantage; also recorded: adverse effect
growth compared to non-transduced cells in competitive co-culture (RN2 (AML) cells; listed as ARTi.6634): considerable growth disadvantage

B2: ARTi-shRNA 6786: ARTi-shRNAmir, antisense RNA UUCGUAUACAAUAUCAUCCGGA (SEQ ID NO: 12), 97 mer SEQ ID NO: 24 (nucleic acid)
chain: B1 chain with G29A, U32G, A35U, U36A, A64U, U65A, A68C, C71U
percentage of shRNA expressing cells over time / toxicity [1]: no considerable toxicity
transcriptional effects / responses (principal component analysis) [2]: only mild transcriptional responses

B3: ARTi-shRNA 6570: ARTi-shRNAmir, antisense RNA UUCGAUAACAAUAUCAUCCGGA (SEQ ID NO: 6), 97 mer SEQ ID NO: 18 (nucleic acid)
chain: B1 chain with G29A, U32G, A34U, U66A, A68C, C71U
percentage of shRNA expressing cells over time / toxicity [1]: no considerable toxicity
transcriptional effects / responses (principal component analysis) [2]: only mild transcriptional responses
EGFR^del19::dsRed::ARTi protein levels (EGFR^del19::dsRed::ARTi): reduction
